Numbering of substitutions follows the chain as printed. In names and notes the source's numbering stands. One block for each binder: values may come before it.
Columns and labels:
HER2m2-Fc = target: T1, HER2m2-Fc (human, UniProt P04626 23-652); experiment: indirect ELISA as in Example 2-6, EC50 compared
T1 construct: also called HERm2; Herm2

HER2m1-Fc = target: T2, HER2m1-Fc (human, UniProt P04626 23-652); experiment: indirect ELISA as in Example 2-6, EC50 compared
T2 construct: also called HERm1; Her2 ml

B1: Pmab-CLC2 (antibody, human IgG1, kappa, V domains shown)
VH: EVQLVESGGGLVQPGGSLRLSCAASGFTFTDYTMDWVRQAPGKGLEWVADVNPNSGGSIYNQRFKGRFTLSVDRSKNTLYLQMNSLRAEDTAVYYCARNLGPSFYFDYWGQGTLVTVSS
VL: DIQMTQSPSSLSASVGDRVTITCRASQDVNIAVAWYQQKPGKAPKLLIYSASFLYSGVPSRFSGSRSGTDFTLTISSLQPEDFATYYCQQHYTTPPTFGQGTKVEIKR
notes: Pertuzumab heavy chain with common light chain CLC2
binding result (HER2m2-Fc): binds

B3: Pmab-CLC4 (antibody, human IgG1, kappa, V domains shown)
VH: B1 VH
VL: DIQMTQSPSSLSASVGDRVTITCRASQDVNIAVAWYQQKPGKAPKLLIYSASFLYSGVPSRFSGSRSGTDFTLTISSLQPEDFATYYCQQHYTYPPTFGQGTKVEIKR
notes: Pertuzumab heavy chain with common light chain CLC4
binding result (HER2m2-Fc): binds

B5: Tmab-CLC5 (antibody, human IgG1, kappa, V domains shown)
VH: not shown
VL: DIQMTQSPSSLSASVGDRVTITCKASQDVSIGVAWYQQKPGKAPKLLIYSASYRYTGVPSRFSGSGSGTDFTLTISSLQPEDFATYYCQQYYIYPYTFGQGTKVEIKR
fold reduction of affinity against the original Trastuzumab (HER2m1-Fc): ~1 fold

Now from value to binder:

binding result (HER2m2-Fc): binds
B2: Pmab-CLC3 (antibody, human IgG1, kappa, V domains shown)
VH: B1 VH
VL: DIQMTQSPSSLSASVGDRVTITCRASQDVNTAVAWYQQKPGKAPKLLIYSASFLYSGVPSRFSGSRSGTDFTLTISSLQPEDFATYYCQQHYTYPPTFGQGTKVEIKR
notes: Pertuzumab heavy chain with common light chain CLC3

binding result (HER2m2-Fc): binds
B4: Pmab-CLC6 (antibody, human IgG1, kappa, V domains shown)
VH: B1 VH
VL: B5 VL with Y94T
notes: Pertuzumab heavy chain with common light chain CLC6 (Y94T)

fold reduction of affinity against the original Trastuzumab (HER2m1-Fc): ~1 fold
B6: Tmab-CLC6 (antibody, human IgG1, kappa, V domains shown)
VH: not shown
VL: B5 VL with Y94T
